Experimental data reported in the supplement of paper PMC7125110.
± gives the standard error. Fewer inactive variants are shown than the library holds.

B1: glmS ribozyme (parent)
chain: AUAAAAGCGCCAGAACUACAGAAAUGUAGUUGACGAGGAGGAGGUUUAUCGAAUUUUCGGCGGAUGCCUCCAAA

Variants of: B1
Test: self-cleavage kobs at 2500 uM GlcN6P; higher = faster cleavage; RNA array
Conditions: with glucosamine-6-phosphate
Method in brief: (§1)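 E. coli RNA polymerase transcribed barcoded ribozyme variants in situ on sequenced MiSeq chips, which were tracked via a hybridised Cy3 probe at 37 °C. Tiles were imaged over ~14 h after glucosamine-6-phosphate (40 μM to 10 mM) in HEPES/KCl/Mg(OAc)2 buffer was flowed in. Normalised per-tile medians were fit to one- or two-exponential decays for kobs, and kcat and KM came from weighted Michaelis–Menten fits.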

Variant | self-cleavage kobs at 2500 uM GlcN6P [s⁻¹]
C16A G29A C70A | 6.39e-05 ± 2.4e-05
C16G G41U C50G | < 1e-05
G29C G37A G43C U69A | < 1e-05
A15G A52U C70U | 0.000255 ± 6.5e-05
G29C A53C C67U | 0.000153 ± 4.1e-05
A15G G32U C71G | 8.85e-05 ± 2.5e-05
C16U A42U U54G | 0.000152 ± 3e-05
A15U G41C | 2.7e-05 ± 1.2e-05
U30G G41U G44U | < 1e-05
A15U G35U G38U U49G U54A | < 1e-05
G29U G37C U46G | < 1e-05
C19A G44A | 0.000112 ± 4e-05
G29U U31C U54C | 0.000161 ± 3.5e-05
G29C A52G C67U | 7.8e-05 ± 2.1e-05
A15C U47C U55C | 0.000237 ± 7.7e-05
A14U C16G U65A | 5.56e-05 ± 1.9e-05
G29C G44C C50U G66U | < 1e-05
U30G U46C C68U | 8.16e-05 ± 1.7e-05
A14G U30A G41C | 0.000337 ± 0.00013
G21U A64U | 0.000111 ± 2.9e-05
A20C A48G | 0.000134 ± 2.6e-05
C16G G37U G44U U47A G51C C68A | < 1e-05
C16A G38C G40C G44U C67A U69C | < 1e-05
G29U G32U C50G | 6.06e-05 ± 2.9e-05
A15G G32A C71G | 0.000277 ± 0.0001
G29A A36G G38U C50U | < 1e-05

Variant | self-cleavage kobs at 2500 uM GlcN6P [s⁻¹]
A14U C50U G63C | < 1e-05
C16U U57A C70G | 5.1e-05 ± 2.1e-05
A14G C16U A53U | 0.0165 ± 0.0044
A14G G29A C70G | 0.000126 ± 4e-05
U31A A36G G63A A64U C71U | < 1e-05
A14C U45C | 0.000604 ± 0.00025
A14U U55G C58G | 5.25e-05 ± 1.2e-05
G29A U65A C71A | 4.59e-05 ± 1.7e-05
G29U U54A C70A | 6.05e-05 ± 3e-05
A14U G32U A53G | 0.000242 ± 7.5e-05
G32C G41A G63A C70U | < 1e-05
G32A C50G C71U | 0.000168 ± 7.3e-05
G29A G41A A48C C71G | < 1e-05
G32C G51U U56C | < 1e-05
U30G U57A | 4.22e-05 ± 1.5e-05
U31G A72G | 0.00235 ± 0.00096
C16A C34A U65A | < 1e-05
A15U U56G C70U | 0.000554 ± 0.00014
A15C U57A C67G | 5.01e-05 ± 2.4e-05
C16U G32C U54C | 5.6e-05 ± 2.1e-05
A14G U55G U69A | 0.000475 ± 8.8e-05
A14U G32C C67A | 3.21e-05 ± 1.6e-05
U30C G63A U69G | 8.06e-05 ± 3.9e-05
A14G C58U G66U C67G | 7.46e-05 ± 3.2e-05
A15G U46A A48U | 5.82e-05 ± 2.3e-05
A15G U45G U46C | 0.00283 ± 0.001

Variant | self-cleavage kobs at 2500 uM GlcN6P [s⁻¹]
A15U A42U G43C C61G U69A | < 1e-05
G32C A33U G40U | < 1e-05
C16U U31G G41C C67U | < 1e-05
G32A G43U G66A C68G | 0.00088 ± 0.0003
G29C C58G G59C C61A G63A | < 1e-05
G32C A36U A53C | < 1e-05
G32C C50G C67G | 4.82e-05 ± 1.8e-05
U30A G41U C70G | 0.00387 ± 0.0011
A15U G29A G62A | < 1e-05
G29U G32C U47C C67G | < 1e-05
A14G A39U C67A | 0.0121 ± 0.003
A15C G37U A39G | < 1e-05
U31C C58A C61U A64U | < 1e-05
A14U A48U U54G G60C U69A C71U | 4.74e-05 ± 1.9e-05
A15C U45C C50G C68U | < 1e-05
U31C G38A G40A | < 1e-05
A14G G41C A42U | 3.8e-05 ± 1.4e-05
A15U G41U A42G U57C C70A | 7.37e-05 ± 2.1e-05
C16A U55A G59C C67U C70G | 9.74e-05 ± 3.6e-05
G29U G38U G66U C68A U69G | 0.000147 ± 5.8e-05
A15G C16U U31A A39C | 0.000142 ± 2.8e-05
U30C U65G C67G | 0.000128 ± 3.3e-05
U31A C70A | 5.68e-05 ± 1.7e-05
A15G G60U G63C | < 1e-05
A14G U46C U54A C71A | 0.000844 ± 0.00027
U30C C58G C68U | 0.000104 ± 2.9e-05

Variants of: B1
Test: self-cleavage kobs at 10000 uM GlcN6P; higher = faster cleavage; RNA array
Conditions: with glucosamine-6-phosphate
Method in brief: as §1

Variant | self-cleavage kobs at 10000 uM GlcN6P [s⁻¹]
C16G G41U C50G | < 1e-05
U30G U46C C68U | 0.000214 ± 5.2e-05
A15G G32A C71G | 0.000201 ± 3.3e-05
A14C U45C | 0.000368 ± 6.5e-05
U30G U57A | 8.3e-05 ± 1.8e-05
U31G A72G | 0.00988 ± 0.0032
C16A C34A U65A | < 1e-05
A14G U55G U69A | 0.000104 ± 2.4e-05
A14U G32C C67A | 8.69e-05 ± 2.8e-05
A15U G29A G62A | < 1e-05
U30C U65G C67G | 2.81e-05 ± 1.3e-05
U31A C70A | 0.000146 ± 3e-05
